Test results from PMC3157250 (2011).

B1: HCMV protease (HCMV Pr) (protein)
chain: MTMDEQQSQAVAPVYVGGFLARYDQSPDEAELLLPRDVVEHWLHAQGQGQPSLSVALPLNINHDDTAVVGHVAAMQSVRDGLFCLGCVTSPRFLEIVRRASEKSELVSRGPVSPLQPDKVVEFLSGSYAGLSLSSRRCDDVEAATSLSGSETTPFKHVALCSVGRRRGTLAVYGRDPEWVTQRFPDLTAADRDGLRAQWQRCGSTAVDASGDPFRSDSYGLLGNSVDALYIRERLPKLRYDKQLVGVTERESYVKA

Columns and labels:
[1] = target: KSHV protease (Kaposi's sarcoma-associated herpesvirus) (UniProt Q2HRB6); settings: cited from earlier work
[2] = target: the molecule itself; test: fluorescence-based substrate cleavage kinetics assay

| Molecule | Kd [1] | Kd [2] |
| --- | --- | --- |
| KSHV protease (from UniProt Q2HRB6) | 1700 nM | – |
| B1 | – | 1300 nM |
